# Measurements taken from patent US20200040059A1.
# Assays:
# [1] = target: human PD-L1, full length, on transfected HEK293 cells (human) (UniProt Q9NZQ7); assay: flow cytometry, Fc fusion at 22.2 nM on HEK293 cells transfected with PD-L1
# [2] = target: human CD28, full length, on transfected HEK293 cells (human) (UniProt P10747); assay: flow cytometry, Fc fusion at 66.6 nM on HEK293 cells transfected with CD28
# [3] = target: human CTLA4, full length, on transfected HEK293 cells (human) (UniProt P16410); assay: flow cytometry, Fc fusion at 66.6 nM on HEK293 cells transfected with CTLA4
# CD28 (human) = CD28 (human) (UniProt P10747); assay: flow cytometry on HEK293 cells transfected with CD28
# PD-L1 (human) = PD-L1 (human) (UniProt Q9NZQ7); assay: flow cytometry on HEK293 cells transfected with PD-L1
# CTLA4 (human) = CTLA4 (human) (UniProt P16410); assay: flow cytometry on HEK293 cells transfected with CTLA4
# [4] = target: human PD-L1, full-length, expressed on transfected Expi293 cells (human) (UniProt Q9NZQ7); assay: flow cytometry on PD-L1-expressing Expi293 cells
# [5] = target: human CD28, full-length, expressed on transfected Expi293 cells (human) (UniProt P10747); assay: flow cytometry on CD28-expressing Expi293 cells
# [6] = target: human CTLA-4, full-length, expressed on transfected Expi293 cells (human) (UniProt P16410); assay: flow cytometry on CTLA-4-expressing Expi293 cells
# Sequence of human CTLA-4, full-length, expressed on transfected Expi293 cells (human) (P16410 36-223 limits assumed): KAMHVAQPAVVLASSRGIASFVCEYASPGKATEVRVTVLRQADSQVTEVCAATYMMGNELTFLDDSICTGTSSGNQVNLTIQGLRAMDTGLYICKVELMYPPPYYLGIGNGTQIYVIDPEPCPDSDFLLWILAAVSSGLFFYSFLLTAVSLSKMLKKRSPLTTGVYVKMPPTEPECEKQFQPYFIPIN
# Sequence of PD-L1 (human) (Q9NZQ7 19-290 limits assumed): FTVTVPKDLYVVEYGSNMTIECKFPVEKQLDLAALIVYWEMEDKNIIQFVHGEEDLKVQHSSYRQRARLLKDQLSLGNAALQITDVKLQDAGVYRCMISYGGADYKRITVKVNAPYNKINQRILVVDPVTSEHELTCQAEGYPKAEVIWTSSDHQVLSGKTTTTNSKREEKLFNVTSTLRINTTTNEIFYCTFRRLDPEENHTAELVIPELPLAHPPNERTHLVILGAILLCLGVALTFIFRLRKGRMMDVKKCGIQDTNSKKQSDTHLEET
# Sequence of human PD-L1, full-length, expressed on transfected Expi293 cells (human) (Q9NZQ7 19-290 limits assumed): as above
# Sequence of human PD-L1, full length, on transfected HEK293 cells (human) (Q9NZQ7 19-290 limits assumed): as above
# Sequence of human CTLA4, full length, on transfected HEK293 cells (human) (P16410 36-223 limits assumed): as the sequence (P16410 36-223 limits assumed) above
# Sequence of CTLA4 (human) (P16410 36-223 limits assumed): as above
# Sequence of CD80 IgV Fc (wild-type CD80 IgV domain fused to Fc) (P33681 35-141 limits assumed): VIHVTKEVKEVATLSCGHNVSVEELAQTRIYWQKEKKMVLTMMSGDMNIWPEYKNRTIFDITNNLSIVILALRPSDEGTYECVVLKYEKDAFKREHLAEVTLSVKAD
substance,measurement,setting,value
CD80 IgV Fc (wild-type CD80 IgV domain fused to Fc) (from UniProt P33681 35-141) (Fc fusion),MFI at 22.2 nM,[1],1770 MFI
same,MFI at 66.6 nM,[2],1620 MFI
same,MFI at 66.6 nM,[3],20700 MFI
CD80 IgV-Fc A71D (from UniProt P33681 35-141) (Fc fusion),MFI at 66.6 nM,CD28 (human),16800 MFI
same,MFI at 22.2 nM,PD-L1 (human),29600 MFI
same,MFI at 66.6 nM,CTLA4 (human),220000 MFI
CD80 IgV-Fc E35D/M47I/L65P/D90N (from UniProt P33681 35-141) (Fc fusion),MFI at 66.6 nM,CD28 (human),2530 MFI
same,MFI at 22.2 nM,PD-L1 (human),4030 MFI
same,MFI at 66.6 nM,CTLA4 (human),4410 MFI
CD80 IgV-Fc E35D/T57I/L70Q/A71D (from UniProt P33681 35-141) (Fc fusion),MFI at 66.6 nM,CD28 (human),21300 MFI
same,MFI at 22.2 nM,PD-L1 (human),2420 MFI
CD80 IgV-Fc L25S/E35D/M47I/D90N (from UniProt P33681 35-141) (Fc fusion),MFI at 66.6 nM,CD28 (human),4840 MFI
same,MFI at 22.2 nM,PD-L1 (human),20900 MFI
same,MFI at 66.6 nM,CTLA4 (human),61300 MFI
CD80 IgV-Fc L72P/T79I (from UniProt P33681 35-141) (Fc fusion),MFI at 66.6 nM,CD28 (human),3400 MFI
same,MFI at 22.2 nM,PD-L1 (human),6020 MFI
same,MFI at 66.6 nM,CTLA4 (human),50200 MFI
CD80 IgV-Fc M42I/I61V/A71D (from UniProt P33681 35-141) (Fc fusion),MFI at 66.6 nM,CD28 (human),6070 MFI
same,MFI at 22.2 nM,PD-L1 (human),4230 MFI
same,MFI at 66.6 nM,CTLA4 (human),54500 MFI
CD80 IgV-Fc M47I/E88D (from UniProt P33681 35-141) (Fc fusion),MFI at 66.6 nM,CD28 (human),7340 MFI
same,MFI at 22.2 nM,PD-L1 (human),97700 MFI
same,MFI at 66.6 nM,CTLA4 (human),105000 MFI
CD80 IgV-Fc M47V/N48H (from UniProt P33681 35-141) (Fc fusion),MFI at 66.6 nM,CD28 (human),14600 MFI
same,MFI at 22.2 nM,PD-L1 (human),146000 MFI
same,MFI at 66.6 nM,CTLA4 (human),207000 MFI
CD80 IgV-Fc P51A/A71D (from UniProt P33681 35-141) (Fc fusion),MFI at 66.6 nM,CD28 (human),4260 MFI
same,MFI at 22.2 nM,PD-L1 (human),5530 MFI
CD80 IgV-Fc S44P/A71D (from UniProt P33681 35-141) (Fc fusion),MFI at 66.6 nM,CD28 (human),2740 MFI
same,MFI at 22.2 nM,PD-L1 (human),6310 MFI
same,MFI at 66.6 nM,CTLA4 (human),8840 MFI
CD80 IgV-Fc T13R/C16R/L70Q/A71D (from UniProt P33681 35-141) (Fc fusion),MFI at 66.6 nM,CD28 (human),16100 MFI
same,MFI at 22.2 nM,PD-L1 (human),9520 MFI
same,MFI at 66.6 nM,CTLA4 (human),197000 MFI
CD80 IgV-Fc T57I (from UniProt P33681 35-141) (Fc fusion),MFI at 66.6 nM,CD28 (human),23600 MFI
same,MFI at 22.2 nM,PD-L1 (human),3380 MFI
same,MFI at 66.6 nM,CTLA4 (human),394000 MFI
CD80 IgV-Fc T79P (from UniProt P33681 35-141) (Fc fusion),MFI at 66.6 nM,CD28 (human),2660 MFI
same,MFI at 22.2 nM,PD-L1 (human),4410 MFI
same,MFI at 66.6 nM,CTLA4 (human),2000 MFI
CD80 IgV-Fc V22I/L70M/A71D (from UniProt P33681 35-141) (Fc fusion),MFI at 66.6 nM,CD28 (human),22800 MFI
same,MFI at 22.2 nM,PD-L1 (human),33400 MFI
CD80 variant A91G/S103P ECD-Fc fusion (from UniProt P33681 35-242),MFI,[4],9 MFI
same,MFI,[5],39 MFI
CD80 variant E24G/R29D/Y31L/Q33H/K36G/M38I/T41A/M43R/M47T/F59L/E81V/L85R/K89N/A91T/F92P/K93V/R94L/H96R ECD-Fc fusion,MFI,[4],1120 MFI
same,MFI parental ratio (ratio to WT CD80 ECD-Fc),[4],0.06
same,MFI,[6],1020 MFI
same,MFI parental ratio (ratio to WT CD80 ECD-Fc),[6],0.02
same,MFI,[5],1070 MFI
same,MFI parental ratio (ratio to WT CD80 ECD-Fc),[5],0.08
CD80 variant E52G/L70Q/A91G/T120S/T130A ECD-Fc fusion (from UniProt P33681 35-242),MFI,[4],6 MFI
same,MFI,[6],245 MFI
CD80 variant IgV-Fc A26E/E35D/M47L/L85Q (from UniProt P33681 35-141) (Fc fusion),MFI at 22.2 nM,[1],55500 MFI
same,MFI at 66.6 nM,[2],2270 MFI
same,MFI at 66.6 nM,[3],40300 MFI
CD80 variant IgV-Fc A26P/E35D/M43I/L85Q/E88D (from UniProt P33681 35-141) (Fc fusion),MFI at 22.2 nM,[1],9510 MFI
same,MFI at 66.6 nM,[2],5410 MFI
same,MFI at 66.6 nM,[3],83100 MFI
CD80 variant IgV-Fc E23G/A26S/E35D/T62N/A71D/L72V/L85M (from UniProt P33681 35-141) (Fc fusion),MFI at 66.6 nM,[2],5480 MFI
same,MFI at 66.6 nM,[3],59000 MFI
